Data on one molecule can be found in patent publication US20210054076A1 (Chugai, published 2021).

Holding throughout (test): FACS on Ba/F3 transfectant, antibody 20 micro g/ml, FITC anti-human IgG
The target in one assay is T1, human CLDN3 (human, UniProt O15551 1-220).
T1 construct: whole, on cells; also called hCLDN3; BaF3_hCLDN3
T1 sequence (looked up): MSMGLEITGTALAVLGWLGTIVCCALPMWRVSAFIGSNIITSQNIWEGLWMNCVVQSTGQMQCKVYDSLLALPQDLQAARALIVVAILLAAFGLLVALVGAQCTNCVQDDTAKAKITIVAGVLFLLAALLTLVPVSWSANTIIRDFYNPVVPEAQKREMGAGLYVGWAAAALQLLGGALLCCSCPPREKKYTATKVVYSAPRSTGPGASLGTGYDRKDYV

The next assay has as its target T2, human CLDN4 (human, UniProt O14493 1-209).
T2 construct: whole, on cells; also called hCLDN4; BaF3_hCLDN4
T2 sequence (looked up): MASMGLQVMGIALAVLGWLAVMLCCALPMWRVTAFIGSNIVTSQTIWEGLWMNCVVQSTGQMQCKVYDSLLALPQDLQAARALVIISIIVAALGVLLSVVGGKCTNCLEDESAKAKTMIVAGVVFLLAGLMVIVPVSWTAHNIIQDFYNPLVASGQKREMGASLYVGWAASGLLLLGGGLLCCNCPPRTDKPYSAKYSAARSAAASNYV

In another assay the target is T3, hCLDN6(Q156L) (human, UniProt P56747 1-220).
T3 construct: Stably expressed on Ba/F3 cells; also called human CLDN6 mutant; BaF3_hCLDN6(Q156L)
T3 chain: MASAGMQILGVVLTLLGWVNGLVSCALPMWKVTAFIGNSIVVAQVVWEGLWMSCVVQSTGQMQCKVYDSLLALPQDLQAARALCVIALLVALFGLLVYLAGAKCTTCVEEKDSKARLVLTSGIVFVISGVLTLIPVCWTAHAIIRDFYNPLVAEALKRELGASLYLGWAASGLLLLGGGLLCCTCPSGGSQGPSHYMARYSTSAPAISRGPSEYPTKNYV

B1: CH04/CD3 (bispecific antibody, human IgG1, kappa, N297A)
heavy 1: EVQLQQSGPELVKPGASMKISCKASGYSFTGYTMNWVKQSHGKNLEWIGLINPYNGGTIYNQKFKGKATLTVDKSSSTAYMELLSLTSEDSAVYYCARDYGFVLDYWGQGTTLTVSSASTKGPSVFPLAPSSKSTSGGTAALGCLVKDYFPEPVTVSWNSGALTSGVHTFPAVLQSSGLYSLSSVVTVPSSSLGTQTYICNVNHKPSNTKVDKKVEPKSCDKTHTCPPCPAPELRGGPKVFLFPPKPKDTLMISRTPEVTCVVVDVSHEDPEVKFNWYVDGVEVHNAKTKPREEQYASTYRVVSVLTVLHQDWLNGKEYKCKVSNKALPAPIEKTISKAKGQPREPQVYTLPPSREEMTKNQVSLTCLVKGFYPSDIAVEWESNGQPENNYKTTPPYLDSDGSFFLYSKLTVDKSRWQQGNVFSCSVMHEALHNHYTQESLSLSP
light 1: DIVLTQSPSIMSVSPGEKVTITCSASSSVSYMHWFQQKPGTSPKLCIYSTSNLASGVPARFSGRGSGTSYSLTISRVAAEDAATYYCQQRSNYPPWTFGGGTKLEIKRTVAAPSVFIFPPSDEQLKSGTASVVCLLNNFYPREAKVQWKVDNALQSGNSQESVTEQDSKDSTYSLSSTLTLSKADYEKHKVYACEVTHQGLSSPVTKSFNRGEC
heavy 2: QVQLVESGGGVVQPGGSLRLSCAASGFTFSNAWMHWVRQAPGKGLEWVAQIKDKSQNYATYVAESVKGRFTISRADSKNSIYLQMNSLKTEDTAVYYCRYVHYAAGYGVDIWGQGTTVTVSSASTKGPSVFPLAPSSKSTSGGTAALGCLVKDYFPEPVTVSWNSGALTSGVHTFPAVLQSSGLYSLSSVVTVPSSSLGTQTYICNVNHKPSNTKVDKKVEPKSCDKTHTCPPCPAPELRGGPKVFLFPPKPKDTLMISRTPEVTCVVVDVSHEDPEVKFNWYVDGVEVHNAKTKPREEQYASTYRVVSVLTVLHQDWLNGKEYKCKVSNKALPAPIEKTISKAKGQPREPQVYTLPPSRKEMTKNQVSLTCLVKGFYPSDIAVEWESNGQPENNYKTTPPYLDSDGSFFLYSKLTVDKSRWQQGNVFSCSVMHEALHNHYTQKSLSLSP
light 2: DIVMTQSPLSLPVTPGEPASISCRSSQPLVHSNRNTYLHWYQQKPGQAPRLLIYKVSNRFSGVPDRFSGSGSGTDFTLKISRVEAEDVGVYYCGQGTQVPYTFGQGTKLEIKRTVAAPSVFIFPPSDEQLKSGTASVVCLLNNFYPREAKVQWKVDNALQSGNSQESVTEQDSKDSTYSLSSTLTLSKADYEKHKVYACEVTHQGLSSPVTKSFNRGEC
notes: Made by Fab arm exchange of the bivalent anti-CLDN6 antibody CH04 with the bivalent anti-CD3 antibody CD3-1; human IgG1 constant region; One anti-CLDN6 arm and one anti-CD3 arm; also called CLDN6-TRAB; CLDN6-targeted T-cell redirecting bispecific antibody
With B1, the “Geo-mean value of FACS” value with human CLDN3 was determined as 36; with human CLDN4, 34; in the assay with hCLDN6(Q156L), 80.
